This is an account of results in patent US20180362643A1 (Amgen, published 2018).

Ends that are not written are not given here.

The target in experiment [1] is T1, PACAP38 peptide fragment 27-38 (human, ends and bridges not checked).
T1 construct: also called peptide No. 6
T1 peptide: LGKRYKQRVKNK
In words: SPR (Biacore 3000), solution competition with the peptide for antibody binding to immobilised full-length PACAP38; % inhibition. The protocol: (§1) The binding epitopes of anti-PACAP antibodies were evaluated by using the Biacore 3000 biosensor-based instrument (GE Healthcare USA). The Biacore 3000 instrument utilizes surface plasmon resonance (SPR) technology to measure mass increase on the sensor-chip surface. The binding interactions are measured in real-time and recorded as Response Units (RU). Each binding profile (cycle) is stored in a “sensorgram” in real-time. Generally, Biacore technology entails immobilizing a ligand of interest on to a flow-cell of the sensor-chip via a coupling chemistry. The analyte (e.g. putative binding partner to the ligand of interest) is injected across the immobilized ligand allowing it to bind to the ligand-immobilized surface. The magnitude of the response is directly proportional to the mass increase on the immobilized surface due to the binding of the analyte.
(§2) In this experiment, various peptide fragments of PACAP38 were incubated with each of the six antibodies (mAb1, mAb2, mAb3, mAb4, mAb5, and mAb6) described in Example 2 and evaluated for their ability to inhibit binding of the antibodies to full-length PACAP38 immobilized on the sensor-chip. The binding epitopes for each of the antibodies were deduced from the set of peptides that were able to inhibit the binding of each antibody to full-length PACAP38.
(§3) Each of the six anti-PACAP antibodies was incubated at a 1:200 molar ratio (Ab: peptide fragment) with each of the peptide fragments in Table 9 at an ambient temperature for 2 hours prior to analysis. […] A second control containing 6.5 nM antibody was prepared in sample diluent to be used as the untreated control sample for each antibody. Full-length PACAP38, buffer, and each peptide fragment were also tested to evaluate non-specific binding to the immobilized PACAP38 surface.

For experiment [2], the target named is T2, amino terminal PACAP38 peptide (amino acids 1-13) (human).
T2 construct: also called N-terminal Peptide; N-terminal PACAP peptide
T2 peptide: HSDGIFTDSYSRY
In words: ELISA screen of B-cell culture supernatant; N-terminal peptide at 500 ng/mL; ELISA screen of B-cell culture supernatant (Example 1); N-terminal peptide 500 ng/mL; optical density. The text has this:
Rabbits were immunized with human PACAP38 peptide ([…]; SEQ ID NO: 1). Monoclonal antibodies were generated from the immunized rabbits using the Selected Lymphocyte Antibody Method (SLAM) as described in Babcook et al., Proc. Natl. Acad. Sci. USA, Vol. 93: 7843-7848, 1996. Briefly, B cells were harvested from spleens from the immunized rabbits and expanded in culture. The supernatant from the expanded B-cell cultures was initially screened for binding to an amino terminal PACAP38 peptide ([…]; SEQ ID NO: 5) and a carboxy terminal PACAP38 peptide ([…]; SEQ ID NO: 4) using an ELISA assay. From the initial screen, 2,935 N-terminal and/or C-terminal binders were identified. The affinity of these antibodies for full-length human PACAP38 (SEQ ID NO: 1) was assessed by ELISA assay.

The target in experiment [3] is T3, PACAP38 peptide fragment 11-27 (human).
T3 construct: also called peptide No. 8
T3 peptide: SRYRKQMAVKKYLAAVL
In words: SPR (Biacore 3000), solution competition: antibody pre-incubated 2 h with the peptide at 1:200 molar ratio (Ab:peptide), then injected over immobilised full-length PACAP38; readout % inhibition of antibody binding (filing counts >50 % as reactive). The method, then: as §1, §2, §3

In experiment [4] the target is T4, full-length human PACAP38 (human, not fully specified).
T4 peptide: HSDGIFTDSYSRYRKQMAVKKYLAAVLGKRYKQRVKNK
In words: cell-based or functional assay.

Another experiment concerns the target T5, human PACAP27 (human, not fully specified).
T5 construct: Natural isoform, amino acids 1-27 of PACAP38; also called peptide No. 1 (amino acids 1-27 of PACAP38)
T5 peptide: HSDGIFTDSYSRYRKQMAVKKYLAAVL
In words: SPR (Biacore 3000), solution competition with the peptide for antibody binding to immobilised full-length PACAP38; % inhibition. The protocol: as §1, §2, §3

Experiment [5] addresses T2, amino terminal PACAP38 peptide (amino …). Described as above. The method, then:
as §1, §2, §3

Experiment [6] deals with T6, PACAP38 peptide fragment 6-36 (human).
T6 construct: also called peptide No. 12
T6 peptide: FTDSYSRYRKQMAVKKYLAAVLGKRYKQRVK
The description is as above. The protocol:
as §1, §2, §3

Experiment [7] concerns the target T3, PACAP38 peptide fragment 11-27. The experiment is described as above. The method, then:
as §1, §2, §3

Experiment [8] addresses T7, PACAP38 peptide fragment 6-35 (human).
T7 construct: also called peptide No. 4
T7 peptide: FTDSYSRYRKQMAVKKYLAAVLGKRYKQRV
The experiment is described as above. The protocol:
as §1, §2, §3

In experiment [9] the target is T8, PACAP38 peptide fragment 4-27 (human).
T8 construct: also called peptide No. 9
T8 peptide: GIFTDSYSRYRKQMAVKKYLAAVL
The experiment is described as above. The protocol:
as §1, §2, §3

For experiment [10], the target named is T1, PACAP38 peptide fragment 27-38. In words: SPR (Biacore 3000), solution competition: antibody pre-incubated 2 h with the peptide at 1:200 molar ratio (Ab:peptide), then injected over immobilised full-length PACAP38; readout % inhibition of antibody binding (filing counts >50 % as reactive). The protocol: as §1, §2, §3
A further experiment has as its target T9, 30-37.
T9 construct: also called PACAP38 peptide fragment 30-37; peptide No. 19
T9 peptide: RYKQRVKN
The experiment is described as above. The method, then: as §1, §2, §3

The target of experiment [11] is T10, vasoactive intestinal peptide (VIP) (human).
T10 construct: also called human VIP
T10 peptide: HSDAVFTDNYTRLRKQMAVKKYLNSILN
In words: ELISA screen of B-cell culture supernatant.

The target in experiment [12] is T1, PACAP38 peptide fragment 27-38. In words: SPR (Biacore 3000) solution competition against immobilised PACAP38.
Experiment [13] deals with T11, PACAP38 peptide fragment 26-33 (human).
T11 construct: also called peptide No. 2
T11 peptide: VLGKRYKQ
The experiment is described as above.

B1: mAb6 (antibody, V domains shown)
VH: QLEESGGGLVQPGASLTLTCTTSGFSLSDNYLCWVRQAPGRGLEWVACIGIVLRSTGATYYASWAEGRFTISKTSPTTVTLEMTSLTAADTATYFCALDLGYGGPLWGPGTLVTVSS
VL: AQVLTQTPASVSAAVGGTVTINCQASQSVYNNKNLAWYQQKPGQPPKLLIYFSSTLASGVPSRFRGSGSGTQFTLTISGVQCGDAATYYCLGEFGSIWAFGGGTEVVVKG
notes: Rabbit monoclonal antibody (SLAM), recombinant; also called monoclonal anti-PACAP antibody 6; 6 (c55)
For the molecule B1, the binding result was “no binding (tested: 1:200 molar ratio (Ab:peptide))” in experiment [1] and “binds” in experiment [3]. In experiment [2], the “Optical Density” value stood at 4.24 OD.

B2: mAb2 (antibody, V domains shown)
VH: QSLEESGGGLVQPEGSLTLTCTASGFSFNSSSYMCWVRQAPGKGLEWIGCIFTGSSGNTYYATWAQGRFTISKTSTTVTLEMTSLTAADTATYFCARDRAYFLVGYFYATYYFDLWGPGTLVTVSS
VL: DVVMTQTPSPVSAQVGGTVTINCQASESIDSDLSWYQQKPGQPPKLLIYRTFTLESGVPSRFKGSGSGTDYTLTISDLECADAAIYYCQCTDGSSISGSYGWDAFGGGTEVVVKG
notes: Rabbit monoclonal antibody (SLAM), recombinant; also called monoclonal anti-PACAP antibody 2; 2 (c81)
With B2, the “IC50, inhibition of PACAP38-induced activation of the PAC1 receptor (cAMP assay, CRL-2266 cells)” value in experiment [4] was < 1 nM. In [4], the “potency relative to PAC1 Ab, inhibition of PACAP38-induced PAC1 receptor activation (cAMP assay)” value is ~10 fold. For the same molecule, the binding result (with human PACAP27; in experiment [5]; in [6]; in experiment [7]; in experiment [8]; in [9]) was “no binding (tested: 1:200 molar ratio (Ab:peptide))” throughout. The binding result is “binds” in [10], “binds” with 30-37 and “no binding (tested: 100 ng/mL)” in experiment [11].

B3: mAb5 (antibody, V domains shown)
VH: QSVEESGGRLVTPGTPLTLTCTVSGFSLSTYNMCWVRQAPGKGLEWVGFINSDDSAYYASWAKGRFTFSKTSTTVDLKIASPTTEDTATYFCARYDWDYYYSRLDLWGPGTLVTVSS
VL: DIVLTQTPASVSAAVGGTVSISCQSSESVYNNNYLSWFQQKPGQPPKLLIYGASTLASGVPSRFEGSGSGTQFTLTISDVQCDDAATYYCLGDYIIIENIFGGGTEVVVKG
notes: Rabbit monoclonal antibody (SLAM), recombinant; also called monoclonal anti-PACAP antibody 5; 5 (c71)
Regarding B3, the figures for the binding result in experiment [12], in [13] and in experiment [11] were “no binding (tested: 1:200 molar ratio (Ab: peptide fragment))”, “no binding (tested: 1:200 molar ratio (Ab: peptide fragment))” and “no binding (tested: 100 ng/mL)”, respectively. Moreover, the “Optical Density” value in experiment [2] came to 1.34 OD.
